Assay results: US20050222029A1 (MYRIAD GENETICS, published 2005)

Tests used:
Assay in all cases: yeast two-hybrid
[1] = target: T1, tetratricopeptide repeat domain 3 (TPRD) 1058-1189 (human, UniProt P53804 1058-1189)
T1 construct: prey (Gal4 AD-HA fusion)
T1 sequence (looked up): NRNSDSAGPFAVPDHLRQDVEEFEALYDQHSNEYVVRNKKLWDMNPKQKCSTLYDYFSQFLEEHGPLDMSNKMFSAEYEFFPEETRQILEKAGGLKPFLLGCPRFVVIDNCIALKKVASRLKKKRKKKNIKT

[2] = target: T2, intracellular chloride channel protein (CLIC1) 98-210 (human, UniProt O00299 98-210)
T2 construct: range 98-210; prey (Gal4 AD-HA fusion); also called NCC27

[3] = target: T3, intracellular chloride channel protein (CLIC1) 51-210 (human, UniProt O00299 51-210)
T3 construct: range 51-210; prey (Gal4 AD-HA fusion); also called NCC27

[4] = target: T4, golgi autoantigen, golgin subfamily a, 5 (Golgin-84) 609-731 (human, UniProt Q8TBA6 609-731)
T4 construct: prey (Gal4 AD-HA fusion)
T4 sequence (looked up): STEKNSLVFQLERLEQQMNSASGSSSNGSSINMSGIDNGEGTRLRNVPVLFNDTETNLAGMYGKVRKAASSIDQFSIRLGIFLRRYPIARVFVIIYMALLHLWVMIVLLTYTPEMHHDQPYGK

[5] = target: T5, upstream of N-ras, alt. transcript (798) (UNR) 110-528 (human, UniProt O75534 110-528)
T5 construct: prey (Gal4 AD-HA fusion)
T5 sequence (looked up): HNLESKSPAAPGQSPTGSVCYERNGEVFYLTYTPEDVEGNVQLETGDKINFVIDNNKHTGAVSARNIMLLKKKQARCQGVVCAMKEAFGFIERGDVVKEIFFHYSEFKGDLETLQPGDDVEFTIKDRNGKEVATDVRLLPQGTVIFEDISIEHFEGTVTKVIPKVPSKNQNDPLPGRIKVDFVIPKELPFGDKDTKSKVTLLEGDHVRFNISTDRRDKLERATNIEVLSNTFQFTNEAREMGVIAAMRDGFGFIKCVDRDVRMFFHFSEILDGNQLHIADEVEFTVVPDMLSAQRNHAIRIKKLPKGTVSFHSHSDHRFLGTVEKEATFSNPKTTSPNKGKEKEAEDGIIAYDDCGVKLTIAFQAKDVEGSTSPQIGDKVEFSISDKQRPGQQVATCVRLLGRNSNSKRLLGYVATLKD

[6] = target: T6, Protein kinase C and casein kinase substrate (PACSIN2) 174-367 (human, UniProt Q9UNF0 174-367)
T6 construct: prey (Gal4 AD-HA fusion)
T6 sequence (looked up): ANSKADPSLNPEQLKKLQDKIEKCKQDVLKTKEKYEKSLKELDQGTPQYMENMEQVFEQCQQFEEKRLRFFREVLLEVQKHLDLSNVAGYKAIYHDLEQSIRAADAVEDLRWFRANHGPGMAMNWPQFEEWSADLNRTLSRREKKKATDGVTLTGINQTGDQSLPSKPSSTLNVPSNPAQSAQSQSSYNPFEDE

[7] = target: T7, VPS28 protein 10-221 (human, UniProt Q9UK41 10-221)
T7 construct: prey (Gal4 AD-HA fusion); also called vacuolar protein sorting 28
T7 sequence (looked up): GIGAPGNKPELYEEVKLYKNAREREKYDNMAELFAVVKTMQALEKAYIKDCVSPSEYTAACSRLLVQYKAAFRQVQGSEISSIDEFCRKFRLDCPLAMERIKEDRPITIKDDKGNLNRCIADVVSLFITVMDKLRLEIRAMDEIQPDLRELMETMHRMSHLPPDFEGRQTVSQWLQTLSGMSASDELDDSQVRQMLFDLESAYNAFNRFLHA

[8] = target: T8, Chromosome-associated polypeptide HCAP (HCAP) 119-353 (human, UniProt Q9UQE7 119-353)
T8 construct: prey (Gal4 AD-HA fusion)
T8 sequence (Q9UQE7 119-353 limits assumed): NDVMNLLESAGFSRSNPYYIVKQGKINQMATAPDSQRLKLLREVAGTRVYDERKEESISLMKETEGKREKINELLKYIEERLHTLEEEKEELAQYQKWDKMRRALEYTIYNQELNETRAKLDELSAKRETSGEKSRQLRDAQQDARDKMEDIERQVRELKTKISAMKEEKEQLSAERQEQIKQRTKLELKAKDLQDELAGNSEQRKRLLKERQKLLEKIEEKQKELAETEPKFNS

[9] = target: T9, Charcot-Leyden crystal protein; periplakin (PPL) 1548-1756 (human, UniProt O60437 1548-1756)
T9 construct: prey (Gal4 AD-HA fusion)
T9 sequence (looked up): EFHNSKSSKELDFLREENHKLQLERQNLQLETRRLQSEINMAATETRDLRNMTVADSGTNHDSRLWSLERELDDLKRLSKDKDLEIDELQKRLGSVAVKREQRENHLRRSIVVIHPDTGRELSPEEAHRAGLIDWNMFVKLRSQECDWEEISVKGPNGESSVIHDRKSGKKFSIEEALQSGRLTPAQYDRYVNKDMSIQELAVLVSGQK

[10] = target: T10, Catenin, alpha 2 (A2-CAT) 1-166 (human, UniProt P26232 1-166)
T10 construct: prey (Gal4 AD-HA fusion)
T10 sequence (looked up): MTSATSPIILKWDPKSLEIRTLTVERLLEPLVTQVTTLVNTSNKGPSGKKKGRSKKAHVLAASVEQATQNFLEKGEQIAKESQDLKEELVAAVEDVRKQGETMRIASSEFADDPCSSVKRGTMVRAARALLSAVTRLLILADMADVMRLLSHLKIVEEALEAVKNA

[11] = target: T11, Catenin, alpha 2 (A2-CAT) 55-487 (human, UniProt P26232 55-487)
T11 construct: prey (Gal4 AD-HA fusion)
T11 sequence (looked up): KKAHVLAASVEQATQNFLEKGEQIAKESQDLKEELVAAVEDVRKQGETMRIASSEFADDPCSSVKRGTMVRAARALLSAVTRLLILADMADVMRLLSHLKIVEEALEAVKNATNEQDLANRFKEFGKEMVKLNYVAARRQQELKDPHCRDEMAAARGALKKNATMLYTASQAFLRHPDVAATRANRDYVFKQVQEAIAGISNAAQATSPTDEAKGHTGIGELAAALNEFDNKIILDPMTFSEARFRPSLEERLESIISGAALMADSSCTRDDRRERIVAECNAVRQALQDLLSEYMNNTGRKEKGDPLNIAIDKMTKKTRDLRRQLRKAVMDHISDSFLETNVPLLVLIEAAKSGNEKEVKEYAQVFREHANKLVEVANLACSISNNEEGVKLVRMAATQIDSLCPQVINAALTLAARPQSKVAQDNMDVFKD

[12] = target: T12, Golgi autoantigen (Golgin-84) 198-501 (human, UniProt Q8TBA6 198-501)
T12 construct: prey (Gal4 AD-HA fusion)
T12 sequence (looked up): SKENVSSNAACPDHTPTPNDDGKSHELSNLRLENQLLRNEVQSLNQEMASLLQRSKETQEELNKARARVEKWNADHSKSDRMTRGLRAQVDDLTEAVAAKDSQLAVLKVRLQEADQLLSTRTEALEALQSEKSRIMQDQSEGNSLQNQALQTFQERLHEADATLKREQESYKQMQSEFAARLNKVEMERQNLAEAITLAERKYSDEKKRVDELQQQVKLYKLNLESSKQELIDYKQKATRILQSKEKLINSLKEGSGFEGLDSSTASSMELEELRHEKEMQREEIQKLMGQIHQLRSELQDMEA

[13] = target: T13, Cytoplasmic linker 2 (CYLN2) 607-947 (human, UniProt Q9UDT6 607-947)
T13 construct: prey (Gal4 AD-HA fusion)
T13 sequence (looked up): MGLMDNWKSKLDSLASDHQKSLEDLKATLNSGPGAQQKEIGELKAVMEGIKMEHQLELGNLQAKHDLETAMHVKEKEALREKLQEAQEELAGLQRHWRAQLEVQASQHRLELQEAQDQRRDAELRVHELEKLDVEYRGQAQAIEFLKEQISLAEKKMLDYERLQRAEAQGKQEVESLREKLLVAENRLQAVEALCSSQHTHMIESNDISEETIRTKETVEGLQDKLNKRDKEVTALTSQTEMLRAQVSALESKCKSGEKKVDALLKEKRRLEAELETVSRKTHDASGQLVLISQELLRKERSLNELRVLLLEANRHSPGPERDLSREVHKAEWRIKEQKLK

[14] = target: T14, VPS28 protein 9-211 (human, UniProt Q9UK41 9-211)
T14 construct: prey (Gal4 AD-HA fusion); also called vacuolar protein sorting 28
T14 sequence (looked up): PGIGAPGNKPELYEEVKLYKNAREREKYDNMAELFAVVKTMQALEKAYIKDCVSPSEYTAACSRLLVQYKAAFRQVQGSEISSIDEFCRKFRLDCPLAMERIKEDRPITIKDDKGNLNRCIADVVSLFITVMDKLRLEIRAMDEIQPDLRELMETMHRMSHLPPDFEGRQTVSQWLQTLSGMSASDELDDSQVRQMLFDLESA

[15] = target: T15, Apolipoprotein A-I (APOA1) 106-267 (human, UniProt P02647 106-267)
T15 construct: bait (Gal4 DBD fusion)
T15 sequence (P02647 106-267 limits assumed, form in doubt): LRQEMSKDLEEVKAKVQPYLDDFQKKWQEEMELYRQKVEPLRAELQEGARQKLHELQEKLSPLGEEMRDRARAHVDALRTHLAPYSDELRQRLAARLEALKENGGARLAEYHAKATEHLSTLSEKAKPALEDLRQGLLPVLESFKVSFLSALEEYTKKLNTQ

[16] = target: T16, PIBF1 392-758 (human, UniProt Q8WXW3 392-757)
T16 construct: prey (Gal4 AD-HA fusion)
T16 sequence (looked up): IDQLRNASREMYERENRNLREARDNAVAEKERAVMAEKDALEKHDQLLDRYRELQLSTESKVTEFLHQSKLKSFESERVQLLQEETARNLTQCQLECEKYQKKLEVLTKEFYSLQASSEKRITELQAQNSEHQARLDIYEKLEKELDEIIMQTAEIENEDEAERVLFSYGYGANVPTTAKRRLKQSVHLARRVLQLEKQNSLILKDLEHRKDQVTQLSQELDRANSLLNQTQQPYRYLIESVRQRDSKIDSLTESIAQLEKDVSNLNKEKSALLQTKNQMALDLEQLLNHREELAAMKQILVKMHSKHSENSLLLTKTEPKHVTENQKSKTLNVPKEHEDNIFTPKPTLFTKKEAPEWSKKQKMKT

B1: v-akt murine thymoma viral oncogene homolog 2 (AKT2) 1-108 (enzyme, human, UniProt P31751 1-108, looked up)
chain: MNEVSVIKEGWLHKRGEYIKTWRPRYFLLKSDGSFIGYKERPEAPDQTLPPLNNFSVAECQLMKTERPRPNTFVIRCLQWTTVIERTFHVDSPDEREEWMRAIQMVAN
notes: bait (Gal4 DBD fusion)
- binding result [1]: binds
- binding result [2]: binds
- binding result [3]: binds

B2: v-akt murine thymoma viral oncogene homolog 1 (AKT1) 1-118 (enzyme, human, UniProt P31749 1-118, looked up)
chain: MSDVAIVKEGWLHKRGEYIKTWRPRYFLLKNDGTFIGYKERPQDVDQREAPLNNFSVAQCQLMKTERPRPNTFIIRCLQWTTVIERTFHVETPEEREEWTTAIQTVADGLKKQEEEEM
notes: bait (Gal4 DBD fusion)
- binding result [4]: binds

B3: ribosomal protein S6 kinase, 90 kDa, polypeptide 1 (p90RSK) 418-467 (enzyme, human, UniProt Q15418 418-467, looked up)
chain: YVVKETIGVGSYSECKRCVHKATNMEYAVKVIDKSKRDPSEEIEILLRYG
notes: range 418-467; bait (Gal4 DBD fusion); also called HU1
- binding result [5]: binds

B4: Tumor Suppressor (TSG101) 265-391 (other, human, UniProt Q99816 265-390, looked up)
chain: KGHQKLEEMVTRLDQEVAEVDKNIELLKKKDEELSSALEKMENQSENNDIDEVIIPTAPLYKQILNLYAEENAIEDTIFYLGEALRRGVIDLDVFLKHVRLLSRKQFQLRALMQKARKTAGLSDLY
notes: range 265-391; bait (Gal4 DBD fusion); also called TSG101 265-390
- binding result [6]: binds
- binding result [7]: binds

B5: Tumor Suppressor (TSG101) 264-391 (other, human, UniProt Q99816 264-390, looked up)
chain: KKGHQKLEEMVTRLDQEVAEVDKNIELLKKKDEELSSALEKMENQSENNDIDEVIIPTAPLYKQILNLYAEENAIEDTIFYLGEALRRGVIDLDVFLKHVRLLSRKQFQLRALMQKARKTAGLSDLY
notes: range 264-391; bait (Gal4 DBD fusion)
- binding result [8]: binds

B6: v-akt murine thymoma viral oncogene homolog 1 (AKT1) 1-109 (enzyme, human, UniProt P31749 1-109, looked up)
chain: MSDVAIVKEGWLHKRGEYIKTWRPRYFLLKNDGTFIGYKERPQDVDQREAPLNNFSVAQCQLMKTERPRPNTFIIRCLQWTTVIERTFHVETPEEREEWTTAIQTVADG
notes: bait (Gal4 DBD fusion)
- binding result [9]: binds

B7: Survivin (BIRC5) 52-143 (other, human, UniProt O15392 52-142, looked up)
chain: PDLAQCFFCFKELEGWEPDDDPIEEHKKHSSGCAFLSVKKQFEELTLGEFLKLDRERAKNKIAKETNNKKKEFEETAKKVRRAIEQLAAMD
notes: range 52-143; bait (Gal4 DBD fusion); also called API4
- binding result [10]: binds
- binding result [11]: binds

B8: Tumor Suppressor (TSG101) 231-391 (other, human, UniProt Q99816 231-390, looked up)
chain: ISAVSDKLRWRMKEEMDRAQAELNALKRTEEDLKKGHQKLEEMVTRLDQEVAEVDKNIELLKKKDEELSSALEKMENQSENNDIDEVIIPTAPLYKQILNLYAEENAIEDTIFYLGEALRRGVIDLDVFLKHVRLLSRKQFQLRALMQKARKTAGLSDLY
notes: bait (Gal4 DBD fusion)
- binding result [12]: binds
- binding result [13]: binds
- binding result [14]: binds

B9: syntaxin 2 (STX2) 156-261 (other, human, UniProt P32856 156-261, looked up)
chain: GRTTTDDELEEMLESGKPSIFTSDIISDSQITRQALNEIESRHKDIMKLETSIRELHEMFMDMAMFVETQGEMINNIERNVMNATDYVEHAKEETKKAIKYQSKAR
- binding result [15]: binds

B10: Tumor Suppressor (TSG101) 12-326 (other, human, UniProt Q99816 12-326, looked up)
chain: VSKYKYRDLTVRETVNVITLYKDLKPVLDSYVFNDGSSRELMNLTGTIPVPYRGNTYNIPICLWLLDTYPYNPPICFVKPTSSMTIKTGKHVDANGKIYLPYLHEWKHPQSDLLGLIQVMIVVFGDEPPVFSRPISASYPPYQATGPPNTSYMPGMPGGISPYPSGYPPNPSGYPGCPYPPGGPYPATTSSQYPSQPPVTTVGPSRDGTISEDTIRASLISAVSDKLRWRMKEEMDRAQAELNALKRTEEDLKKGHQKLEEMVTRLDQEVAEVDKNIELLKKKDEELSSALEKMENQSENNDIDEVIIPTAPLYK
notes: bait (Gal4 DBD fusion)
- binding result [16]: binds
